assay: soluble on expression in E. coli; label from the status in PepcDB or PDB records

Sequence	soluble on expression in E. coli
MEEFVNPCKIKVIGVGGGGSNAVNRMYEDGIEGVELYAINTDVQHLSTLKVPNKIQIGEKVTRGLGAGAKPEVGEEAALEDIDKIKEILRDTDMVFISAGLGGGTGTGAAPVIAKTAKEMGILTVAVATLPFRFEGPRKMEKALKGLEKLKESSDAYIVIHNDKIKELSNRTLTIKDAFKEVDSVLSKAVRGITSIVVTPAVINVDFADVRTTLEEGGLSIIGMGEGRGDEKADIAVEKAVTSPLLEGNTIEGARRLLVTIWTSEDIPYDIVDEVMERIHSKVHPEAEIIFGAVLEPQEQDFIRVAIVATDFPEEKFQVGEKEVKFKVIKKLHHHHHH	soluble
MEEGDIVGILKVFFVRTGAIGKRLGFKAGDIRIREEIVQANLTWKEDGEIRRERIKTRFFGYFRSHVAEWEPVIAAESVDVERGEVARIKIKEITLPEYTVITPLFIRRHALGSLIDVVQQGKRRKVEEKKRIGEAIFLPARSGRVEKGDLLGVINVYYIATENFSVGRREKDEVLAKVVDERGRKEFRIKPFAYRRKTIARWEPIVAAENRKVRKGEVEEIAIEPISLEENTIVYPLYVMRNAFGSVVDVVEERPRRVEERREIIKAVFLPVFDGEIRKGQLLGVMNVYSIEVQPYEVIWRWLEEWQGEFRRLFAEVVGLEHHHHHH	soluble
MEEINTKEVAQRITTELKRYSIPQAIFAQRVLCRSQGTLSDLLRNPKPWSKLKSGRETFRRMWKWLQEPEFQRMSALRLAACKRKEQEHGKDRGNTPKKPRLVFTDVQRRTLHAIFKENKRPSKELQITISQQLGLELSTVSNFFMNARRRSLDKWLEHHHHHH	soluble
MEEKKEDKFILLKNLYEEWKDCTRCDLHKSRTRVVPGDGNPYSLLVFVGEAPGEEEDRQGKPFVGRAGQLLNRLIEEVLGMKREDVYITNVCKCRPPQNRKPTPIEMRACFPYLKKEIEIIQPKVICCLGATAGEGILGKSLRITKVRGQVFPYPYNPRIKVFLTYHPAYVLRNPKEETTIIKDFEKLKELLTQE	soluble
MEEMMMNDPSAMVIYEEEVTTAPNLPCSLIQQRSWDEEKPIGYELTNTKCYKTPNGVQKTATIQREQLSTSKDFGEQQIVEMDGEFSIEGTDMHAIPCTSSSMQPSTSSNPSSGEHQPVPLRRMAIKIGQRVLRFKVISAEEAPEAPLDTQDSWINDPKPVTTPKALAGLYRCTNCKTYFGNKEVYQRHIQEVHGDARPFRCFNCGMRFANKTSMTHHLKDHSLLKPMFSCDYCPRIFSKLESKTRHHKMHFTRSTCQTCMRFFTTEDALRHHQSTAHPATFDSGPPPEDLLPNGKSARYSCSYCNLRFHFKKDMLVHERIHTGEKPYSCGYCMKSFAQSQALTAHIRTHTKELPYGCGKCDKRFRDNSCLRKHELAAHTDEPIVRPISVAYSNQVQKQMQRQRENRRKQELLIAERHPYRI	not soluble
MEERLSTTSSYPSHPGRSVEEDHNTLLASSSISSIIRGTRGHLNNFIESVGNWLVPSSSGRDDDAVSLDSCQSVYSPVRHHINSGTGGGILMEPSSIHVPENYYSVTIGEAQMVVLKRYQNLRLIGSGAQGIVCSAFDTVRNEQVAIKKLSRPFQNVTHAKRAYRELKLMSLVNHKNIIGILNCFTPQKKLDEFNDLYIVMELMDANLCQVIQMDLDHERLSYLLYQMLCGIRHLHSAGIIHRDLKPSNIVVRSDCTLKILDFGLARTAIEAFMMTPYVVTRYYRAPEVILGMGYKENVDVWSIGCIFGELIRGRVLFPGGDHIDQWTRIIEQLGTPDRSFLERLQPTVRNYVENRPRYQATPFEVLFSDNMFPMTADSSRLTGAQARDLLSRMLVIDPERRISVDDALRHPYVNVWFDEIEVYAPPPLPYDHNMDVEQNVDSWREHIFRELTDYARTHDIYS	not soluble
MEESLKVGIAGLGTVGSSVVRILREKANSLTCQCGRSIKVVAVSARDKSRNRGIDLSDVKWFDSPVEMASSDEIDVFVELIGGESDVVYAAVKKALETGHHVVTANKALLAQHGGRLAVSAEKKGVFLHFEAAVAGGIPIIKVMRESLVSNHISRIYGILNGTCNYILTRMFTEGLSFKECLEDAQRLGYAEVDPTFDIGGNDTAHKLALLTSLAFGTAVSLDDIYVEGISNISQIDIRAADELGYRIKLLGVALKTETGIEQRVHPTMVPTSSMIAQIHGVTNALSIQSDLLGELLLSGPGAGGTATASAVIGDLADIAKARPGFQYAPVLGRPALGLAPHKKARISHHAGGYFIRLNVHDRAGVFAAVAKHMAGNHISLESIVQRSFVESQSVKTIILITHETTEVNVQQALAAIEKDGHLVAKSQFIRIEPMVLEHHHHHH	not soluble
MEFAGTIFIELTFTPKVPRLNRDDLNKEMDRLDSSMAMRPIPPLPTESEYDYVHGSTMRQITPQCVSTSHEDKDEGQPYRNGNVFSMSSKSDTAVLANSNDPIILPPTFSASMGTTSTLETNDTAISNTSNTKFHFANLRKLKEKINIFKNPDSST	not soluble
MEFELEQHTPIIHFQARDAGATLRASEVKPKLDKFILTQIGKRFVKKTASTTEKNFIERGIEYFQNKDEEARRVYEEEKKKGNKGAKLELCLIPGQEGALNYKLSFKLSPDAKVQYFLPMSSNPKEIDKLKSLAQEKLGVQEVEMLPLTSYFANEDKAKSEPNIKHGDTPDQIKNKKRIFEENWQKVQLATFVNTPVEGVIRFQNAGLREEVNNLITNFFMLHNFGARQSKGFGSFIISLRDGKEEEDYFDTGCACYGYSFYIPAKTLEEALRKINYFYRSLRSGFNEYRGKNEIFYAKSGMHFYATKHNFEWDKKSIKGMLFDRDKDLEGKMKKEELFAFRDLLGLSSNERWQSYKTTITKECRNKKGEKFDRIKSPIQFKPICYSKYDYIVFFDLFPEKSGIPQLKGGKVVVKSSRHKGAVLELKIQEDIDLYNVFNEIFSELNFESQVGEYDSLTDAKEIFETMKDIYEQLNKNCHE	not soluble
MEFKLHNGSGGLCCKSCSRQDKKLNTYDWLADIPGNAEESDMVEVQFKNTRKGYYRNSNKIKLEKGDIVAVEATPGHDIGTVTLTGRLVPLQMKKANFKQDAEIKRIYRKAKAVDMEKYEEAKAKEHTTMIRARQIAASLNLDMKIGDVEYQGDGNKAIFYYIADERVDFRQLIKVLAEAFRVRIEMKQIGARQEAGRIGGIGPCGRELCCATWMTSFVSVSTSAARYQDISLNPQKLAGQCAKLKCCLNYEVDCYVEAQKRLPSREIELETKDGTYYFFKADILSNQISYSTDKNFAANLVTISGKRAFEVIGLNKRGIKPDSLLEAERKPEPKKPVDLLEQESLTRFDRDRRRNAKDGNGKDEGGNGNRKKKKKNNNHPQQATNGETQSSQPTPINAQENNGSQPVQNQQRTRGERPKNNNRNNNQPRKNNESREPRSNENRETRKNEPREQRPPREPRGPRNNEQPKRIEKAQENEKPAQELEHHHHHH	not soluble
MEGGKLQSTFVFEEIGRRLKDIGPEVVKKVNAVFEWHITKGGNIGAKWTIDLKSGSGKVYQGPAKGAADTTIILSDEDFMEVVLGKLDPQKAFFSGRLKARGNIMLSQKLQMILKDYAKL	soluble
MEGLLIDYVQPGSIAEELEIEAGDRLVAINGQDLRDIIDFSFYAHDEELALEIVKPSGDHWEAEIERDGDEPLGLVFAPPVPAQCGNKCVFCFVHQLPLEHHHHHH	soluble
MEGVMGQVEKRPISTIVFIVAMQKEAQPLINRLRLVEEVNTPFPKEVTWIMFKGMYKDLNINIVCPGKDSTLGVESVGTVPASLVTYASILAIQPDLIINAGTAGGFKAKGACISDVYVVSTVAFHDRRIPVPVLDIYGVGMRNTFPTPNLIKELNLKVGRLSTGDSMDMSPHDEESITANDATVKDMEGAAVAYVADIFKVPTILIKGVTDIVDGNRPTSEEFLENLAAVTAKLDESLTKVIDFISGKCLSDL	soluble
MEGWQRAFVLHSRPWSETSLMLDVFTEESGRVRLVAKGARSKRSNLKGALQPFTPLLLRYSGRGEVKTLRSAEAVSLALPLSGITLYSGLYINELLSRVLEYETRFSELFFDYLNCIQALAGTTGSPEPALRRFELALLGHLGYGVNFTHCAGSGERVDDTMTYRYREEKGFFASVVIDNNTFTGRHLKALEAREFPDVDTLRAAKRFTRMALKPYLGGKPLKSRELFRQFMPKRTVKTKKD	not soluble
